Experimental data: the supplement of paper PMC11865577

What follows are sequences tested on G-clamp-N3 (biotin conjugate) (assay: pull-down binding Z-score (relative to library population); higher = stronger binding). Conditions: RNA library: Library-1 (pre-miRNA loops + repeats).
Summary of the method: (§1)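 A heat-folded, dye-end-labelled (Cy5 or Cy3) RNA library (1 μg, phosphate/NaCl/KCl buffer) was exposed for 60 min at 25 °C to streptavidin beads holding 100 pmol of biotin-conjugated small molecule. RNA retained on the beads was eluted in hot SDS and hybridised to a DNA barcode microarray for 20 h at 55.5 °C. Binding scores were Z-scores against the library mean and standard deviation, calculated after subtracting beads alone and taking trimmed means of replicate probes.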

Going from UCCCAGCCACUCUGGAGG [hsa-mir-4419b] to “UCCCAGGAAAUUCACUUUAGGAAGUCCUAGGA [hsa-mir-5571]”, the “pull-down binding Z-score” value rises from 0.653 to 0.804.

First: UCCCAGGCCCUUCCUCCAAUACUGGGA [hsa-mir-4666b]
Second: UCCCAUUUCCACAUGGAGAGUGGAGCCCAGA [hsa-mir-3123]
The “pull-down binding Z-score” value of the first is lower: -0.809 for the first, 1.02 for the second.

Compared with “UCCCCAGAAGCUGAGGAUUAGGGGA [hsa-mir-6503]”, UCCCCUAGCGCGCCUUCUGGAGA [hsa-mir-3188] is lower in “pull-down binding Z-score” value: 1.93 for the first, 1.12 for the second.

Compared with UCCCCUCAGGA [hsa-mir-5703], “UCCCUUCCUGGACACACAGGAGGAGA [hsa-mir-5680]” is lower in “pull-down binding Z-score” value: 0.99 for the first, -1.27 for the second.

First: UCCGGCCGGCCAUGCUGGCGGGG [hsa-mir-762]
Second: UCCUAGGCGGGUCGCUGCGGUACCUCCCUCCUGUCUGUGGCGGUGGGAUCCCGUGGCCGUGUUUUCCUGGUG [hsa-mir-663b]
The “pull-down binding Z-score” value of the first is higher: 0.45 for the first, -0.826 for the second.

Going from “UCCUCAGACCAGGUGGCUCCCGAGCCACCCCAGGCUGUAGG [hsa-mir-2392]” to UCCUCCACAAAUGCGUGUGGAGGA [hsa-mir-4633], the “pull-down binding Z-score” value rises from -1.09 to 0.135.

Compared with “UCCUCCAUGCUUGGAAAAUGCAGGGAGGA [hsa-mir-764]”, “UCCUCUCCUGGUCUGGGAGGAUAGAAGAGAGGA [hsa-mir-5191]” is higher in “pull-down binding Z-score” value: 0.669 for the first, 1.96 for the second.

Going from UCCUGAGACAGGA [hsa-mir-4261] to UCCUGAGCUAGGAGGAUUAGGA [hsa-mir-5093], the “pull-down binding Z-score” value rises from -0.47 to 1.05.

First: UCCUGAUCUGAUGGAAGUCAUGA [hsa-mir-7843]
Second: UCCUGAUGGUCCCCUCCCCAGGG [hsa-mir-185]
The “pull-down binding Z-score” value of the first is higher: -0.244 for the first, -1.02 for the second.

First: UCCUGGGAAGCAUGGUAGCCAGGA [hsa-mir-5192]
Second: UCCUGUAGUGUCUUAUAUACAAUACAGUAGGA [hsa-mir-613]
The “pull-down binding Z-score” value of the first is higher: 2.06 for the first, -0.0831 for the second.

Going from “UCCUUUUCUCUACCUUGUAGAGAAGCA [hsa-mir-3609]” to “UCGAGAGGUCAGAGGAUUGCUCCUGA [hsa-mir-5585]”, the “pull-down binding Z-score” value rises from -0.207 to 3.56.

Compared with UCGCCUAGGGCUCUGAGCAGGGCA [hsa-mir-211], UCGGCACUAUUGUGACUGU [hsa-mir-7855] is lower in “pull-down binding Z-score” value: 1.4 for the first, -0.0938 for the second.

Going from UCGUCAGUGUUUGA [hsa-mir-8073] to UCUAUCUGUAUUCUUACUGAAGGGA [hsa-mir-504], the “pull-down binding Z-score” value rises from -0.342 to 0.763.

First: UCUCAAAAUAAUUCUGCAGUGAGA [hsa-mir-4524b]
Second: UCUCAAUCCAUUCAUAUUGAAA [hsa-mir-3662]
The “pull-down binding Z-score” value of the first is higher: 2.26 for the first, -1.04 for the second.

First: UCUGCAGGUUCGCACUGAUGCCUGCUCG [hsa-mir-6726]
Second: UCUGCUUUAUUUCAUCAAAGCAGA [hsa-mir-4773-1]
The “pull-down binding Z-score” value of the first is higher: 0.44 for the first, -0.484 for the second.

First: UCUGCUUUGAUGAAAUAAAGCAGA [hsa-mir-4773-2]
Second: UCUGGGGAGAGAGUCCUCUUUUCAGC [hsa-mir-8082]
The “pull-down binding Z-score” value of the first is higher: -0.541 for the first, -0.804 for the second.

Compared with UCUGUUGCUUGAAAGAAGAGA [hsa-mir-526a-1], “UCUGUUGUCUGAAAGAAAACA [hsa-mir-518b_518c]” is lower in “pull-down binding Z-score” value: 1.67 for the first, -0.569 for the second.

First: UCUGUUUGUUUUCUCUUAAACA [hsa-mir-519d]
Second: UCUGUUUUAAGUAACAGA [hsa-mir-7705]
The “pull-down binding Z-score” value of the first is lower: -0.0316 for the first, 0.244 for the second.

Going from UCUUAGACUAUUACAAGA [hsa-mir-3672] to UCUUAGCACGGGGUCUAAGG [hsa-mir-4747], the “pull-down binding Z-score” value rises from -0.633 to 0.0593.

The sequences below were run on TO-N3-2 (biotin conjugate) in the same assay as above. Conditions: RNA library: Library-2.
Summary of the method: as §1

First: UAUUUCAAAAGACUAGAGGUAGGAAAUGAG [hsa-mir-3975]
Second: UAUUUUGUUAUUCUGGUCACAGAAUGACCUAGUA [hsa-mir-630]
The “pull-down binding Z-score” value of the first is higher: -0.211 for the first, -1.11 for the second.

First: UCAAACAAGUUUCCAAAUUGUUUGA [hsa-mir-488]
Second: UCACAAUUGCGCUACAGAACUGUUGA [hsa-mir-203b]
The “pull-down binding Z-score” value of the first is lower: -1.02 for the first, 0.308 for the second.

Going from “UCACAGGGCUCAGGGAAUGUGUCUGCACCUGUGA [hsa-mir-587]” to UCACAGUUGGUUUCUGACACGUGG [hsa-mir-4535], the “pull-down binding Z-score” value falls from 0.206 to -0.0476.

Compared with UCACUGCUGCUGGCGCCCUGA [hsa-mir-943], “UCACUGUGAACAGUCUCAGUCAGUGA [hsa-mir-183]” is lower in “pull-down binding Z-score” value: 0.911 for the first, -0.631 for the second.

Compared with “UCAGACACAUCAGAUCCCUUAUCUGUAAAAUGGGCAUGA [hsa-mir-640]”, “UCAGAUAUUUAAGUUAACAGUAUUUGA [hsa-mir-580]” is lower in “pull-down binding Z-score” value: 0.521 for the first, -1.5 for the second.

Going from “UCAGCACCUGAACGCCAAGGCUGG [hsa-mir-3150a]” to “UCAGCCCCAUAUGUAUCUGAAGGCUGA [hsa-mir-5694]”, the “pull-down binding Z-score” value falls from 0.123 to 0.0924.

Compared with “UCAGCUGUAAUACAUGGAUUGGCUGG [hsa-mir-30b]”, “UCAGCUGUGAGCUCAAGGUGGCUGG [hsa-mir-30c-1]” is higher in “pull-down binding Z-score” value: -0.252 for the first, 0.98 for the second.

First: UCAGCUGUGGAAAGUAAGAAAGCUGG [hsa-mir-30c-2]
Second: UCAGGAUCUACUCAUGUCGUCUUUGG [hsa-mir-573]
The “pull-down binding Z-score” value of the first is higher: 1.31 for the first, 0.472 for the second.

Compared with “UCAGGCUUUAAUGUUUGAAGUAAUGUCAGU [hsa-mir-6874]”, “UCAGGGAGAAAGUGCAUACAGCCCCUG [hsa-mir-328]” is higher in “pull-down binding Z-score” value: 0.228 for the first, 0.36 for the second.

First: UCAGGUGAAUGUGUCUGG [hsa-mir-3916]
Second: UCAGUUUUGUAGCAUCAAAACU [hsa-mir-4521]
The “pull-down binding Z-score” value of the first is lower: -0.347 for the first, -0.134 for the second.

Compared with UCAUAAAGAUGAUC [hsa-mir-8067], “UCAUAAAUAUUUUAAGGAAUGACCCGGCCCUGGGG [hsa-mir-4285]” is higher in “pull-down binding Z-score” value: 0.0453 for the first, 0.308 for the second.

First: UCAUUUAUGUGAACUAAAAUAUAAAUUU [hsa-mir-513a-2_513a-1]
Second: UCCAACCUGAAAUCCUUCUGUAGGUUGAG [hsa-mir-5702]
The “pull-down binding Z-score” value of the first is lower: -1.11 for the first, 0.0189 for the second.

Compared with “UCCACAAGGAGGGGAUGACCCUUGUGGG [hsa-mir-4437]”, UCCACACUGACAAGGGCCGUGGGG [hsa-mir-3191] is lower in “pull-down binding Z-score” value: 1.37 for the first, 0.967 for the second.

Going from “UCCACCCCCAGAGAAUCCCUAAACCGGGGGUGGA [hsa-mir-1289-1]” to “UCCACCCUGGUCCAGGUCCACAGCAGUGGA [hsa-mir-4644]”, the “pull-down binding Z-score” value rises from -0.449 to 0.479.

First: UCCACCUAGACGGGCCUGGGUCAA [hsa-mir-4698]
Second: UCCAGACGGAGAUGCGA [hsa-mir-611]
The “pull-down binding Z-score” value of the first is higher: 0.907 for the first, 0.858 for the second.

First: UCCAGAGGCAUCCCUAACCCAGAAUCUUUUGACUGUCCUCUGGA [hsa-mir-4306]
Second: UCCAGCUGUGUGAUAUUCUGCUG [hsa-mir-19b-1]
The “pull-down binding Z-score” value of the first is lower: -0.281 for the first, 0.384 for the second.

Going from “UCCAGGAUCUGGGUUUUGAGGUCUUGG [hsa-mir-4309]” to UCCAGGCAUCUGUGUCUG [hsa-mir-4669], the “pull-down binding Z-score” value rises from 0.345 to 0.591.

First: UCCAGGGCUCCUGACACCUGGA [hsa-mir-6861]
Second: UCCAGUGUGGCUCGGAGGCUGGA [hsa-mir-139]
The “pull-down binding Z-score” value of the first is lower: -0.248 for the first, 1.18 for the second.

Compared with UCCAUGAAAAGAACCCAUGGG [hsa-mir-4471], UCCCAGCCACUCUGGAGG [hsa-mir-4419b] is higher in “pull-down binding Z-score” value: -0.307 for the first, 0.631 for the second.

Compared with “UCCCAGGAAAUUCACUUUAGGAAGUCCUAGGA [hsa-mir-5571]”, “UCCCAGGCCCUUCCUCCAAUACUGGGA [hsa-mir-4666b]” is higher in “pull-down binding Z-score” value: -1.41 for the first, -0.446 for the second.

First: UCCCAUUUCCACAUGGAGAGUGGAGCCCAGA [hsa-mir-3123]
Second: UCCCCAGAAGCUGAGGAUUAGGGGA [hsa-mir-6503]
The “pull-down binding Z-score” value of the first is higher: 0.671 for the first, -0.108 for the second.

First: UCCCCUAGCGCGCCUUCUGGAGA [hsa-mir-3188]
Second: UCCCCUCAGGA [hsa-mir-5703]
The “pull-down binding Z-score” value of the first is higher: 0.507 for the first, -0.802 for the second.

First: UCCCUUCCUGGACACACAGGAGGAGA [hsa-mir-5680]
Second: UCCGGCCGGCCAUGCUGGCGGGG [hsa-mir-762]
The “pull-down binding Z-score” value of the first is lower: -0.56 for the first, 0.213 for the second.

Going from “UCCUAGGCGGGUCGCUGCGGUACCUCCCUCCUGUCUGUGGCGGUGGGAUCCCGUGGCCGUGUUUUCCUGGUG [hsa-mir-663b]” to “UCCUCAGACCAGGUGGCUCCCGAGCCACCCCAGGCUGUAGG [hsa-mir-2392]”, the “pull-down binding Z-score” value rises from 1.55 to 1.75.

First: UCCUCCACAAAUGCGUGUGGAGGA [hsa-mir-4633]
Second: UCCUCCAUGCUUGGAAAAUGCAGGGAGGA [hsa-mir-764]
The “pull-down binding Z-score” value of the first is lower: -1.6 for the first, -1.01 for the second.

Going from “UCCUCUCCUGGUCUGGGAGGAUAGAAGAGAGGA [hsa-mir-5191]” to UCCUGAGACAGGA [hsa-mir-4261], the “pull-down binding Z-score” value falls from 3.13 to -1.02.

Going from UCCUGAGCUAGGAGGAUUAGGA [hsa-mir-5093] to UCCUGAUCUGAUGGAAGUCAUGA [hsa-mir-7843], the “pull-down binding Z-score” value falls from 0.417 to 0.409.

Compared with UCCUGAUGGUCCCCUCCCCAGGG [hsa-mir-185], UCCUGGGAAGCAUGGUAGCCAGGA [hsa-mir-5192] is higher in “pull-down binding Z-score” value: 0.784 for the first, 0.994 for the second.
